T1: human ALPI on CHO cells (human, UniProt P09923 20-503)
T1 construct: whole, on cells; also called CHO-ALPI
T1 sequence (looked up): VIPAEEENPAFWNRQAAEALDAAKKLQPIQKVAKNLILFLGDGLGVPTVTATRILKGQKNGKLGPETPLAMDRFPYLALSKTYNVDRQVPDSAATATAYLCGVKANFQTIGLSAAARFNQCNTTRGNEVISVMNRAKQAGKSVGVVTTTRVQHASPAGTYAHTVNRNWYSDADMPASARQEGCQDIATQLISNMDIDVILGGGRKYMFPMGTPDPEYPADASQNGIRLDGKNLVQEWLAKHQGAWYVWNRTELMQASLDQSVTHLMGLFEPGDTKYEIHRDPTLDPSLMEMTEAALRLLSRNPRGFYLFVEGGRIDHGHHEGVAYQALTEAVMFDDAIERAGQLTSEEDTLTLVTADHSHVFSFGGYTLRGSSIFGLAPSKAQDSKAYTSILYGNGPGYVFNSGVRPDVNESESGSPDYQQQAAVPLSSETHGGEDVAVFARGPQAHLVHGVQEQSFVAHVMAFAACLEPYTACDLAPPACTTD

T2: human ALPL on CHO cells (human, UniProt P05186 18-501)
T2 construct: whole, on cells; also called CHO-ALPL
T2 sequence (looked up): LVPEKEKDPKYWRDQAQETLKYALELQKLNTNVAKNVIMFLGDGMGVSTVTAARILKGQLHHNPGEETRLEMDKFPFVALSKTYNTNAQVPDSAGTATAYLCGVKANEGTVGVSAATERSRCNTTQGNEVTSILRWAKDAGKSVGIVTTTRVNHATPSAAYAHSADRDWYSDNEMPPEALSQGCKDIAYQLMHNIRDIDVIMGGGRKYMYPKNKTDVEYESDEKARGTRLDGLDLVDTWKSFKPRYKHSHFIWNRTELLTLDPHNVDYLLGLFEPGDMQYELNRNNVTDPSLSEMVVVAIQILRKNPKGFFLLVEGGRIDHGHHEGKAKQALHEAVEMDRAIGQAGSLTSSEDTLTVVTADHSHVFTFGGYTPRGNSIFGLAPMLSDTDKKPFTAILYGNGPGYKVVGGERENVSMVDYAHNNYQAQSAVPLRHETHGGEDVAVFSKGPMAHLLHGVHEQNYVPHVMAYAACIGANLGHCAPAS

T3: ALPI His homodimer (human, UniProt P09923 20-503)
T3 construct: Whole entry with His tag; used in ELISA and BLI; also called hALPI
T3 sequence: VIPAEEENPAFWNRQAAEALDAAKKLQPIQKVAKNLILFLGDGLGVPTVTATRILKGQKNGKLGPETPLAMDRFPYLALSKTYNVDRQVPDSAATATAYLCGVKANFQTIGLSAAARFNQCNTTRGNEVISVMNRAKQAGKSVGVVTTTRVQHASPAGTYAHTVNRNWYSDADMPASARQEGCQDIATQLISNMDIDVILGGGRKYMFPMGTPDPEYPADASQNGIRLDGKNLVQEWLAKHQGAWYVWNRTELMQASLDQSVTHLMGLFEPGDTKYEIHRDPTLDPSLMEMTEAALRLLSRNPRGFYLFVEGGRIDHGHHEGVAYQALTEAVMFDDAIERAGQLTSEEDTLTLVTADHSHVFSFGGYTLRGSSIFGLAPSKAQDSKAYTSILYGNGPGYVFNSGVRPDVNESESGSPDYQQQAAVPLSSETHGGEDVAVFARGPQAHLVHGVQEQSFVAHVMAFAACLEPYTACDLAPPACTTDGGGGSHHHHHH

T4: Human ALPL (leucine zipper) (human)
T4 construct: Whole entry: fused with a cysteine stabilised leucine zipper and His tag; also called hALPL
T4 chain: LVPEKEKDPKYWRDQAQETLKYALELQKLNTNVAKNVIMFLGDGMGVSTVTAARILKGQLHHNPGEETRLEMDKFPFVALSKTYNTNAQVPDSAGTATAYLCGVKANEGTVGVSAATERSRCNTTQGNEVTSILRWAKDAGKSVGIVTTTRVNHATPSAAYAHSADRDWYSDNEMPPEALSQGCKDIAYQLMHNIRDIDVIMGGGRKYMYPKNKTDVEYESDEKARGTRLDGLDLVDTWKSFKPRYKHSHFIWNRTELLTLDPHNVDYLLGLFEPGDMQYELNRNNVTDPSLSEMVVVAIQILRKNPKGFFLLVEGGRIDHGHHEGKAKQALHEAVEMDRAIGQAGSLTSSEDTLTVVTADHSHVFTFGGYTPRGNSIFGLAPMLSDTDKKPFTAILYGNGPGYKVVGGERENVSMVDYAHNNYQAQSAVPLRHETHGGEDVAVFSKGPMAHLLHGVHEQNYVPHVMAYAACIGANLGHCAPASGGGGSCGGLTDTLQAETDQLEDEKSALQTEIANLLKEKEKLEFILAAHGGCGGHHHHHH

T5: Human ALPP (leucine zipper) (human)
T5 construct: Whole entry: ALPP fused with a cysteine stabilised leucine zipper and His tag; also called hALPP
T5 chain: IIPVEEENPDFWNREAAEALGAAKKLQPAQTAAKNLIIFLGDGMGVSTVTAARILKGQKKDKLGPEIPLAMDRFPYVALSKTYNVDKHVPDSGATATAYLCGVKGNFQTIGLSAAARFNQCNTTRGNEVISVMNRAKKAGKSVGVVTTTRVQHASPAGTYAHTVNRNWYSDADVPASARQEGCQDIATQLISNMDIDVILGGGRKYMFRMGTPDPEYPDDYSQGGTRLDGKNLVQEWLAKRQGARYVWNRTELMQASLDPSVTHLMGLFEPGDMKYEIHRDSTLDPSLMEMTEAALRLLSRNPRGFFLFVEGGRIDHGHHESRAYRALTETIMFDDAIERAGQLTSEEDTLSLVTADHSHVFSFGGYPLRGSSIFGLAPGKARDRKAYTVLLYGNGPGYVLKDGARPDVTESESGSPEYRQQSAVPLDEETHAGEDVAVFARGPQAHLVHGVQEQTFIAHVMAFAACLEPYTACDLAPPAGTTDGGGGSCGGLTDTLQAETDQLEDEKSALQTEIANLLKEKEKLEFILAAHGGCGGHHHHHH


Legend:
human ALPI on CHO cells = target: T1, human ALPI on CHO cells; experiment: flow cytometry, CHO cells stably expressing human ALPI; PDC detected with FITC anti-human Ab
Protocol: (§1) Biparatopic VHH-hFc drug conjugates were assessed for human ALPP, ALPPL2, ALPI and ALPL cell-surface binding by flow cytometry. Binders were screened on CHO cells stably expressing human ALPP, ALPPL2, ALPI or ALPL.
(§2) Cell surface binding of test agents to hALPP isoforms was characterized in four CHO-ALPP isoform transfectant cell lines (CHO-ALPP, CHO-ALPPL2, CHO-ALPI and CHO-ALPL) and the resulting KDapp values determined. Adherent cells were detached from tissue culture flasks by incubating with 0.1% EDTA/PBS solution at 37° C. for […] or until cells detached easily. Cells were re-suspended in ice-cold PBS/2% FCS in 15 ml tubes and centrifuged at 1700 rpm for 5 mins at 4° C. Supernatant was removed and the cell pellet re-suspended in PBS/2% FCS. […] Cells were incubated with 100 μl of test agents at a range of concentrations, plus controls for 1 hr on ice. The sample plate was centrifuged at 1700 rpm for 5 mins at 4° C. The supernatant was removed, and a wash performed by re-suspending the cell pellets in 0.25 mL of ice-cold PBS/2% FCS using a multichannel pipette. Samples were again centrifuged at 1700 rpm for 5 min at 4° C. Supernatant was removed and two further washes performed as described. After the final wash and centrifugation step, excess liquid was removed by blotting the plate on tissue paper. Binding of VHH-hFc agents was determined by adding 100 μl of Fitc-anti-human Ab (ThermoFisher) and incubating for 30 mins on ice in the dark. Wash steps were performed as described previously. All cell pellets were finally re-suspended in 0.28 ml of ice-cold PBS/2% FCS and left on ice in the dark prior to analysis on a Merck-Millipore Guava EasyCyte HT or Thermo Fisher Attune N×T flow cytometer.

human ALPL on CHO cells = target: T2, human ALPL on CHO cells; experiment: flow cytometry, CHO cells stably expressing human ALPL; PDC detected with FITC anti-human Ab
Protocol: as §1, §2

ALPP CysHis = target: T6, ALPP CysHis (human, UniProt P05187 23-502); experiment: ELISA, antigen coated
T6 construct: Whole entry: engineered human ALPP with an introduced cysteine and a His tag; homodimer; also called engineered ALPP homodimer; hALPP (ELISA)
Description: (§3) ELISA was used to test the binding and specificity of the VHHs. […] Anti-Llama—HRP antibody was used for detection.

ALPI His homodimer = target: T3, ALPI His homodimer; experiment: ELISA, antigen coated
Description: as §3

[1] = target: T4, Human ALPL (leucine zipper); experiment: BLI, antigen immobilised
Protocol: (§4) Binding kinetics were determined using the Biolayer Interferometry (BLI) Octet K2 system (Sartorius). […] All assays were conducted in PBS with a plate temperature of 25° C. Ka (M⁻¹s⁻¹), Kd (s⁻¹) and KD (nM) values were determined using Octet Data Analysis High Throughput software (ForteBio) for Biolayer Interferometry.

[2] = target: T5, Human ALPP (leucine zipper); experiment: BLI, antigen immobilised
Protocol: as §4

binding result (human ALPI on CHO cells)	binding result (human ALPL on CHO cells)	binding result (ALPP CysHis)	binding result (ALPI His homodimer)	binding result [1]	Kd [2]	koff [2]	kon [2]	Binder
no binding (tested: 350 nM)	no binding (tested: 350 nM)	–	–	–	–	–	–	D10-E06 hFc-vcPAB-MMAE [G4S]3 (Fc fusion, DAR 4, MC-vc-PAB-MMAE on Cys 239 and Cys 442 (EU numbering), Biparatopic drug conjugate, DAR 4; also called #634) chain 1: QVQLVESGGGLVQPGGSLRLSCAASGSIFSVNTMGWYRQAPGKQRDLVAVATSGGTIHYADSVKGRFTISRDNAKNTVYLQMNSLKPEDTAVYYCNLVVPYGMIAGDHDYWGQGTKVTVSSGGGGSGGGGSGGGGSEPKSSDKTHTCPPCPAPELLGGPCVFLFPPKPKDTLMISRTPEVTCVVVDVSHEDPEVKFNWYVDGVEVHNAKTKPREEQYNSTYRVVSVLTVLHQDWLNGKEYKCKVSNKALPAPIEKTISKAKGQPREPQVYTLPPSRDELTKNQVSLYCLVKGFYPSDIAVEWESNGQPENNYKTTPPVLDSDGSFFLYSKLTVDKSRWQQGNVFSCSVMHEALHNHYTQKSLCLSPGK chain 2: QVHLVESGGGLVQAGGSLRLSCAASRRSFSEYAMGWFRQAPGKEREFVAAIGWSGVIEYADSVKGRFTISRDNAKDTVYLQMNSLKPEDTAVYYCAAGLGIRVVSQTPAYWGQGTQVTVSSGGGGSGGGGSGGGGSEPKSSDKTHTCPPCPAPELLGGPCVFLFPPKPKDTLMISRTPEVTCVVVDVSHEDPEVKFNWYVDGVEVHNAKTKPREEQYNSTYRVVSVLTVLHQDWLNGKEYKCKVSNKALPAPIEKTISKAKGQPREPQVYTLPPSRDELTKNQVSLTCLVKGFYPSDIAVEWESNGQPENNYKTTPPVLDSDGSFFLTSKLTVDKSRWQQGNVFSCSVMHEALHNHYTQKSLCLSPGK
–	–	binds	no binding (tested: 500 ng VHH)	no binding	< 0.01 nM	< 1e-07 s⁻¹	237000 M⁻¹ s⁻¹	B09 (VHH, not shown: small tags and cut ends) VHH: QVQLVESGGGSVQAGGSLRLSCAASGPSLSHYAMGWFRQAPGKEREFVAGISWGGGRTSYTDSVKGRFTISRDNAKNTVYLQMNNLKPEDTGVYYCAGRYGRGRNVEYEYDYWGQGTQVTVSS
–	–	binds	no binding (tested: 500 ng VHH)	no binding	< 0.01 nM	< 1e-07 s⁻¹	40600 M⁻¹ s⁻¹	F09 (VHH, not shown: small tags and cut ends) VHH: QVQLVESGGGSVQAGGSLRLSCAASGPSLSNYAMGWFRQAPGKEREFVAGISWGGGRTSCTDSVKGRFTISRDNAKNTVYLQMNNLKPEDTGVYYCAGRYGRGRNVEYEYDYWGQGTQVTVSS
–	–	binds	no binding (tested: 500 ng VHH)	no binding	0.19 nM	8.5e-06 s⁻¹	45900 M⁻¹ s⁻¹	H10 (VHH, not shown: small tags and cut ends) VHH: QVQLVESGGGSVQTGGSLRLSCAASGPSLSNYAMGWFRQAPGKEREFVAGISWGGGRTNYLDSVKGRFTISRDNAKNTMYLQMNSLKPEDAAVYYCAGRYGRGRDVEYEYDYWGQGTQVTVSS
–	–	binds	no binding (tested: 500 ng VHH)	no binding	< 0.01 nM	< 1e-07 s⁻¹	58600 M⁻¹ s⁻¹	H09 (VHH, not shown: small tags and cut ends) VHH: QVQLVESGGGSVQTGGSLRLSCAASGPSLSNYAMGWFRQAPGKEREFVAGISWGGGRTNYLDSVKGRFTISRDNAKNTMYLQMNSLKPEDTAVYYCAGRYGRGRDVEYEYDYWGQGTQVTVSS
–	–	binds	no binding (tested: 500 ng VHH)	no binding	–	–	149000 M⁻¹ s⁻¹	E11 (VHH, not shown: small tags and cut ends) VHH: QVQLVESGGGSVQAGGSLRLSCAASGPSLSNFAMGWFRQPPGKEREFVAGISWGGGRTSYTDSVKGRFTISRDNAKNTVYLQMNNLKPEDTGVYYCAGRYGRGRNVEYEYDYWGQGTQVTVSS
